# Data as given in PMC12814185, “Receptor-Mediated Shuttling of a D‑Amino Acid Peptide Achieves High Nanomolar Cytosolic Concentrations” (Journal of the American Chemical Society, 2025).
# [ ]: non-standard residue; d: D form. sulfo‑Cy5 = sulfo-cyanine 5 dye; Cit = NC(=O)NCCC[C@H](N)C(=O)O; Pra = C#CC[C@H](N)C(=O)O; (EG)3 = spacer
# T1: chemokine-like receptor 1 (CMKLR1) (UniProt Q99788 1-373)
# T1 sequence (looked up): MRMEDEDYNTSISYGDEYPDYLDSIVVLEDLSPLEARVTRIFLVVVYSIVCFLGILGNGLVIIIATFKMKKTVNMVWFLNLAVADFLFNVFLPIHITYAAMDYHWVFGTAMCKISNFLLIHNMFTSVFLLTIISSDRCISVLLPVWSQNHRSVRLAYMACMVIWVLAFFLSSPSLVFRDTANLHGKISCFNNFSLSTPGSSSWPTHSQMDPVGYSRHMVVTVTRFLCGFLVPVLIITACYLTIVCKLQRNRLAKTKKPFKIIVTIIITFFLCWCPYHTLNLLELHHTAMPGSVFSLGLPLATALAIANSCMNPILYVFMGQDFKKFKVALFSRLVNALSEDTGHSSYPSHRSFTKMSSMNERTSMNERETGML
# B1: Cy5-PMIγ-cC9 (peptide)
# chain: {sulfo‑Cy5-(EG)3}-[dD][dW][dW][dP][dL][dA][dF][dE][dA][dL][dL][dR]GEV[Cit]-{(EG)3-Pra-NH2}
# modifications: not fully specified (bridges); also: CuAAC triazole link from Pra to azidolysine of the cC9 chain
# Legend:
# [1] = target: T2, recombinant human GST-MDM2 (human, UniProt Q00987 1-491); test: fluorescence polarisation; conditions: both partners purified
# T2 construct: source: recombinant
# T2 sequence (Q00987 whole entry): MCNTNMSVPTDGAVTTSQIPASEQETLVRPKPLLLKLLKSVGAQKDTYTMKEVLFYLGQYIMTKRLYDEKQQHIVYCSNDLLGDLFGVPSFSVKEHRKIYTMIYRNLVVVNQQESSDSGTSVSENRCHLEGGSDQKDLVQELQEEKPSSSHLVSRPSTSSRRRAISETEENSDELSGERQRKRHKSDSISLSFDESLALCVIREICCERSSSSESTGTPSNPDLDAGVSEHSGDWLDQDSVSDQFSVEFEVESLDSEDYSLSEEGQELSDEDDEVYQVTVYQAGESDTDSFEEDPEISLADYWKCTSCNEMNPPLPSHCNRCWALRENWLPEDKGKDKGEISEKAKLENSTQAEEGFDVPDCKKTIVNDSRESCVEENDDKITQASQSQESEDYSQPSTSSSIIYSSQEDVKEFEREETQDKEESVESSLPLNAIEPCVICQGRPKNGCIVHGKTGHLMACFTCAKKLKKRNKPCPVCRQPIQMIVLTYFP
# [2] = target: T1, chemokine-like receptor 1 (CMKLR1); test: cell-based or functional assay
binder,measurement,setting,value
B1,Kd,[1],90 nM
same,"Ca2+ flux assay, EC50",[2],185 nM
